Columns and labels:
3T3-L1 adipocytes [1] = assay: Glut 4 translocation analysis; format: cell-based, murine; conditions: for Fold Change (Mean hCTGF/Mean LacZ), cells positive for cell surface Glut 4 / Fold Change (Mean hTIEG/Mean LacZ), cells positive for cell surface Glut 4: n = 3; for Glut 4 translocation with insulin (in words) / Basal Glut 4 translocation (in words): over-expression in 3T3-L1 adipocytes; for Glut 4 translocation with insulin (in words): all insulin concentrations tested; for Basal Glut 4 translocation (in words): no insulin
From the text: One analysis called “Glut 4 translocation” involves over-expressing the gene in 3T3-L1 adipocytes and then monitoring the ability of insulin to cause the movement (translocation) of the major insulin-regulated glucose transporter, Glut 4, to the cell surface. The cDNA encoding the human gene was sub-cloned into the mammalian expression vector pcDNA3.1 which provides for a V5 epitope tag. This plasmid encoding the human gene was then introduced into differentiated murine 3T3-L1 adipocytes along with a cloned Glut 4 expression construct using an electroporation procedure essentially as described in Kanzaki et al. J. Biol. Chem 275 7167-7175 (2000). A plasmid expressing LacZ was used as a negative control. After stimulation with increasing concentrations of insulin, cells co-expressing both the human gene and cloned Glut 4 were scored for the presence of Glut 4 at the cell surface using fluorescence microscopy.

3T3-L1 adipocytes [2] = assay: Glucose transport analysis in 3T3-L1 adipocytes; format: cell-based, murine
Description: (§1) In some instances another analysis called “glucose transport” was used. This involves over-expressing the gene in either differentiated 3T3-L1 adipocytes or differentiated L6 myotubes and then monitoring the ability of insulin to stimulate glucose transport into these two cell types. A recombinant adenovirus encoding the human gene tagged with a FLAG epitope tag was prepared essentially as described in Zhou et al. Proc. Nat. Acad. Sci. USA. 95: 2509-2514. 3T3-L1 adipocytes or L6 myotubes were infected with recombinant adenovims expressing the human gene. A virus expressing an irrelevant protein was used as the control. 24 h post-infection the cells are stimulated with increasing concentrations of insulin and glucose transport into the cells determined by the counting the accumulation of a radiolabelled glucose analog (2-deoxyglucose) essentially as describe in Kotani et al. Mol Cell. Biol. 18 6971-6982 (1998), Fujishiro et al. J. Biol. Chem. 276 19800-19806 (2001), Ross et al. Biochem. Biophys. Res. Commun. 302 354-358 (2003).

L6 myotubes = assay: Glucose transport analysis in L6 myotubes; format: cell-based
Description: as §1

B1: hCTGF: human Connective Tissue Growth Factor (SEQ ID NO:2) over-expressed in cells from pcDNA3.1 plasmid or recombinant adenovirus (protein, listed as Homo sapiens)
chain: MTAASMGPVRVAFVVLLALCSRPAVGQNCSGPCRCPDEPAPRCPAGVSLVLDGCGCCRVCAKQLGELCTERDPCDPHKGLFCDFGSPANRKIGVCTAKDGAPCIFGGTVYRSGESFQSSCKYQCTCLDGAVGCMPLCSMDVRLPSPDCPFPRRVKLPGKCCEEWVCDEPKDQTVVGPALAAYRLEDTFGPDPTMIRANCLVQTTEWSACSKTCGMGISTRVTNDNASCRLEKQSRLCMVRPCEADLEENIKKGKKCIRTPKISKPIKFELSGCTSMKTYRAKFCGVCTDGRCCTPHRTTTLPVEFKCPDGEVMKKNMMFIKTCACHYNCPGDNDIFESLYYRKMYGDMA
modifications: human connective tissue growth factor (CTGF)
Fold Change (Mean hCTGF/Mean LacZ), cells positive for cell surface Glut 4 (3T3-L1 adipocytes [1]; Insulin 0 nM): 0.97
Fold Change (Mean hCTGF/Mean LacZ), cells positive for cell surface Glut 4 (3T3-L1 adipocytes [1]; Insulin 1 nM): 0.35
Fold Change (Mean hCTGF/Mean LacZ), cells positive for cell surface Glut 4 (3T3-L1 adipocytes [1]; Insulin 10 nM): 0.45
Glut 4 translocation with insulin (in words) (3T3-L1 adipocytes [1]): significantly inhibited Glut 4 translocation at all insulin concentrations tested
Basal Glut 4 translocation (in words) (3T3-L1 adipocytes [1]): little or no effect on basal Glut 4 translocation
FC (hCTGF/Con) glucose transport (3T3-L1 adipocytes [2]; Expt 1, Insulin 0 nM): 0.7
FC (hCTGF/Con) glucose transport (3T3-L1 adipocytes [2]; Expt 1, Insulin 0.05 nM): 0.6
FC (hCTGF/Con) glucose transport (3T3-L1 adipocytes [2]; Expt 1, Insulin 0.1 nM): 0.6
FC (hCTGF/Con) glucose transport (3T3-L1 adipocytes [2]; Expt 1, Insulin 0.3 nM): 0.7
FC (hCTGF/Con) glucose transport (3T3-L1 adipocytes [2]; Expt 1, Insulin 1 nM): 0.8
FC (hCTGF/Con) glucose transport (3T3-L1 adipocytes [2]; Expt 1, Insulin 10 nM): 0.6
FC (hCTGF/Con) glucose transport (3T3-L1 adipocytes [2]; Expt 2, Insulin 0 nM): 0.6
FC (hCTGF/Con) glucose transport (3T3-L1 adipocytes [2]; Expt 2, Insulin 0.05 nM): 0.6
FC (hCTGF/Con) glucose transport (3T3-L1 adipocytes [2]; Expt 2, Insulin 0.1 nM): 0.7
FC (hCTGF/Con) glucose transport (3T3-L1 adipocytes [2]; Expt 2, Insulin 0.3 nM): 0.8
FC (hCTGF/Con) glucose transport (3T3-L1 adipocytes [2]; Expt 2, Insulin 1 nM): 0.8
FC (hCTGF/Con) glucose transport (3T3-L1 adipocytes [2]; Expt 2, Insulin 10 nM): 0.7
FC (hCTGF/Con) glucose transport (3T3-L1 adipocytes [2]; Expt 3, Insulin 0 nM): 0.8
FC (hCTGF/Con) glucose transport (3T3-L1 adipocytes [2]; Expt 3, Insulin 0.05 nM): 0.7
FC (hCTGF/Con) glucose transport (3T3-L1 adipocytes [2]; Expt 3, Insulin 0.1 nM): 0.7
FC (hCTGF/Con) glucose transport (3T3-L1 adipocytes [2]; Expt 3, Insulin 0.3 nM): 0.8
FC (hCTGF/Con) glucose transport (3T3-L1 adipocytes [2]; Expt 3, Insulin 1 nM): 0.9
FC (hCTGF/Con) glucose transport (3T3-L1 adipocytes [2]; Expt 3, Insulin 10 nM): 0.9
Mean FC (hCTGF/Con) +/− SEM (n = 3) glucose transport (3T3-L1 adipocytes [2]; Insulin 0 nM): 0.70 +/− 0.03
Mean FC (hCTGF/Con) +/− SEM (n = 3) glucose transport (3T3-L1 adipocytes [2]; Insulin 0.05 nM): 0.63 +/− 0.06
Mean FC (hCTGF/Con) +/− SEM (n = 3) glucose transport (3T3-L1 adipocytes [2]; Insulin 0.1 nM): 0.67 +/− 0.02
Mean FC (hCTGF/Con) +/− SEM (n = 3) glucose transport (3T3-L1 adipocytes [2]; Insulin 0.3 nM): 0.76 +/− 0.05
Mean FC (hCTGF/Con) +/− SEM (n = 3) glucose transport (3T3-L1 adipocytes [2]; Insulin 1 nM): 0.83 +/− 0.02
Mean FC (hCTGF/Con) +/− SEM (n = 3) glucose transport (3T3-L1 adipocytes [2]; Insulin 10 nM): 0.75 +/− 0.10
Glucose transport (in words) (3T3-L1 adipocytes [2]; over-expression in 3T3-L1 adipocytes, basal and insulin stimulated): inhibited both basal and insulin stimulated glucose transport
FC (hCTGF/Con) glucose transport (L6 myotubes; Expt 1, Insulin 0 nM): 0.78
FC (hCTGF/Con) glucose transport (L6 myotubes; Expt 1, Insulin 10 nM): 0.67
FC (hCTGF/Con) glucose transport (L6 myotubes; Expt 1, Insulin 100 nM): 0.70
FC (hCTGF/Con) glucose transport (L6 myotubes; Expt 2, Insulin 0 nM): 0.79
FC (hCTGF/Con) glucose transport (L6 myotubes; Expt 2, Insulin 10 nM): 0.92
FC (hCTGF/Con) glucose transport (L6 myotubes; Expt 2, Insulin 100 nM): 1.05
FC (hCTGF/Con) glucose transport (L6 myotubes; Expt 3, Insulin 0 nM): 0.79
FC (hCTGF/Con) glucose transport (L6 myotubes; Expt 3, Insulin 10 nM): 0.77
FC (hCTGF/Con) glucose transport (L6 myotubes; Expt 3, Insulin 100 nM): 0.74
Mean FC (CTGF/Con) +/− SEM (n = 3) glucose transport (L6 myotubes; Insulin 0 nM): 0.79 +/− 0.004
Mean FC (CTGF/Con) +/− SEM (n = 3) glucose transport (L6 myotubes; Insulin 10 nM): 0.79 +/− 0.07
Mean FC (CTGF/Con) +/− SEM (n = 3) glucose transport (L6 myotubes; Insulin 100 nM): 0.83 +/− 0.11
Glucose transport (in words) (L6 myotubes; over-expression in L6 myotubes, basal and insulin stimulated): inhibited both basal and insulin stimulated glucose transport

B2: hTIEG: human TIEG (SEQ ID NO:8) over-expressed in 3T3-L1 adipocytes from pcDNA3.1 plasmid (protein, listed as Homo sapiens)
chain: MEERMEMISERPKESMYSWNKTAEKSDFEAVEALMSMSCSWKSDFKKYVENRPVTPVSDLSEEENLLPGTPDFHTIPAFCLTPPYSPSDFEPSQVSNLMAPAPSTVHFKSLSDTAKPHIAAPFKEEEKSPVSAPKLPKAQATSVIRHTADAQLCNHQTCPMKAASILNYQNNSFRRRTHLNVEAARKNIPCAAVSPNRSKCERNTVADVDEKASAALYDFSVPSSETVICRSQPAPVSPQQKSVLVSPPAVSAGGVPPMPVICQMVPLPANNPVVTTVVPSTPPSQPPAVCPPVVFMGTQVPKGAVMFVVPQPVVQSSKPPVVSPNGTRLSPIAPAPGFSPSAAKVTPQIDSSRIRSHICSHPGCGKTYFKSSHLKAHTRTHTGEKPFSCSWKGCERRFARSDELSRHRRTHTGEKKFACPMCDRRFMRSDHLTKHARRHLSAKKLPNWQMEVSKLNDIALPPTPAPTQ
modifications: human transforming growth factor-beta (TGFB) inducible early growth response (TIEG)
Fold Change (Mean hTIEG/Mean LacZ), cells positive for cell surface Glut 4 (3T3-L1 adipocytes [1]; Insulin 0 nM): 1.34
Fold Change (Mean hTIEG/Mean LacZ), cells positive for cell surface Glut 4 (3T3-L1 adipocytes [1]; Insulin 1 nM): 0.20
Fold Change (Mean hTIEG/Mean LacZ), cells positive for cell surface Glut 4 (3T3-L1 adipocytes [1]; Insulin 10 nM): 0.11
Glut 4 translocation with insulin (in words) (3T3-L1 adipocytes [1]): significantly inhibited Glut 4 translocation at all insulin concentrations tested
Basal Glut 4 translocation (in words) (3T3-L1 adipocytes [1]): little or no effect on basal Glut 4 translocation

Reference: US20060074018A1, “Methods of diagnosing & treating diabetes and insulin resistance” (Metabolex Inc, priority 2002, published 2006)
